Biological target: the molecule itself
Test: SEC-MALS

B1: Treponema denticola ComFB (natural protein)
chain: MIIHNVMEDLVYTEVNKLFDEAEEKKESWLTCSCMQCRVDTMCYVLNRVKPRYIKSGRGLAHFLKFEKTEKVQIMADITSLVIEGMHRVLSTKRPHDHEPIFETENTPVFNFPAITGNILNGSNFRPMEDATISLKMNGELVSQMSILWDNPYTISEKTPGAYTFCPKAIPAKNAGDKEKFIFVLKAEKEGFDPTNFSFDIELTAEDMVKSPLDSSNFYQIKNLFLCEHSEEE
  stoichiometry N: 2

Source: paper PMC11581024 (bioRxiv, 2024)
